Experimental data taken from patent publication US7267978, “Chimeric transcriptional regulatory element compositions and methods for increasing prostate-targeted gene expression” (The Regents of the University of California).

Key:
[1] = target: Androgen receptor full length (fAR) (UniProt P10275); test: footprint; conditions: 60% protection at 14 nM; cooperative, within enhancer fragment
[2] = target: Androgen receptor DNA-binding domain (ARDBD, aa 549-650) (Homo sapiens) (UniProt P10275); test: footprint; conditions: 75% occupancy at 1.4 uM
[3] = target: T1, Androgen receptor DNA-binding domain (ARDBD, aa 549-650) (Homo sapiens, UniProt P10275 P10275:550-651); test: footprint; lower affinity than ARE III; conditions: tags: N-terminal His6, C-terminal heart muscle kinase site; E. coli; chain copies: 2
Method: The binding reactions for DNase I footprinting were as described previously (Chi et al., 1995). Indicated amounts of recombinant AR DNA binding domain (ARDBD), FLAG-tagged AR, and crude nuclear extracts from f-LNCaP cells were incubated in 13 μl of buffer containing 12.5 mM HEPES, pH 7.9, 12.5% glycerol, 5 mM MgCl_2, 70 mM KCl, 0.2 mM EDTA, 60 mM mercaptoethanol, 0.5 mg/ml bovine serum albumin, and 200 ng of poly(dG-dC). After 45 min at 30° C., DNase I was added to the reactions. The cleavage reactions were terminated after 1 min by addition of 100 μl of stop buffer containing 400 mM sodium acetate, pH 5.2, 0.2% SDS, 10 mM EDTA, 50 μg/ml yeast tRNA, and 100 μg/ml proteinase K. The mixtures were incubated at 50° C. for 15 min, extracted with phenol/chloroform, and the products precipitated with ethanol. Precipitates were dissolved in formamide loading buffer and analyzed on 8% polyacrylamide/urea sequencing gels. The cleavage ladders were visualized by exposure to XAR-5 film or by PhosphorImager analysis.
A ^32P-labeled PCR™ fragment from −4309 to −4011 of the enhancer was subjected to DNase I footprinting studies. […] A weak footprint was also noticed below site V that had not been detected with ARDBD in earlier experiments.

[4] = target: T1, Androgen receptor DNA-binding domain …; test: affinity column; retained at 0.5 M KCl, eluted at 0.8 M KCl; conditions: tags: N-terminal His6, C-terminal heart muscle kinase site; E. coli; chain copies: 2; label: biotin
Method: The *Escherichia coli* strain BL21(DE3) was transformed with pET11dHis_6ARDBD. 0.1 liter of cells was grown to an $A600$ of 0.6 and induced with 0.5 mM isopropyl-1-thio-β-D-galactopyranoside and 10 μM ZnCl_2 for 3 h. After harvesting, cells were resuspended in 5 ml of Buffer A (20 mM HEPES, pH 7.9, 20% glycerol, 10 μM ZnCl_2, 0.5 mM phenylmethylsulfonyl fluoride) containing 0.1 M KCl and lysed by sonication. The supernatant was incubated with 1.5 ml of Ni-NTA-agarose (Qiagen) resin in batch, rocked gently for 30 min at 4° C., and then loaded on to a small Bio-Rad Econo-column. After successively washing the resin with 15 ml of Buffer A containing 0.1 M KCl, and 15 ml of Buffer A containing 0.1 M KCl and 20 mM imidazole, ARDBD was eluted with Buffer A containing 0.1 M KCl and 150 mM imidazole. […]

Sequence of Androgen receptor full length (fAR) (P10275 whole entry, the tested form may be a part): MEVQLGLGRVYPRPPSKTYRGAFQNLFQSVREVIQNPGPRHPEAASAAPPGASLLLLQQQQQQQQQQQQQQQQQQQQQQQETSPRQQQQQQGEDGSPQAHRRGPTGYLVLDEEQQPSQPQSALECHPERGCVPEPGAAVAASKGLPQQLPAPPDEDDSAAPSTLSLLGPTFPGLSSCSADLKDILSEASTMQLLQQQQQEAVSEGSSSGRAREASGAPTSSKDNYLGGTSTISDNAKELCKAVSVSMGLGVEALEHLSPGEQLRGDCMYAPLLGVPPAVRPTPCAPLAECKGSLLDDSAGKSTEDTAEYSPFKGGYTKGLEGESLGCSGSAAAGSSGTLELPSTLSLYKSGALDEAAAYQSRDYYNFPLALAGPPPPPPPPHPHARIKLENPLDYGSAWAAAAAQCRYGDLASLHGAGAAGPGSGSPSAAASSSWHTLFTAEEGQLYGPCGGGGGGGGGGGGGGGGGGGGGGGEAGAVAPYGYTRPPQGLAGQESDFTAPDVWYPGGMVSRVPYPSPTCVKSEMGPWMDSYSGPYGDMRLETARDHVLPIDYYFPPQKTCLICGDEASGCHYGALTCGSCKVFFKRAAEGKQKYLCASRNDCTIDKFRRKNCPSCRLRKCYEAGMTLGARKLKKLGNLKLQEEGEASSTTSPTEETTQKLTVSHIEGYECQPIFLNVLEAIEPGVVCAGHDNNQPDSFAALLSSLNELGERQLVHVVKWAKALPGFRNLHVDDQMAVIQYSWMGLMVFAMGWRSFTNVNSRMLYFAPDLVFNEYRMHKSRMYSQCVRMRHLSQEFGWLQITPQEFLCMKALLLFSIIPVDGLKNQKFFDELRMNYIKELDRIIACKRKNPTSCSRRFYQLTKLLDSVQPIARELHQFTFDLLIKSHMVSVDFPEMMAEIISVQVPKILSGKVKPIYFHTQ
T1 sequence (P10275 550-651, one chain of several): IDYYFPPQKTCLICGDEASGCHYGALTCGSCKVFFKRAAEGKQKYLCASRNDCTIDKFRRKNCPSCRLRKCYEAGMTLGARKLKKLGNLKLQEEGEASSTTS
Sequence of Androgen receptor DNA-binding domain (ARDBD, aa 549-650) (Homo sapiens) (P10275 550-651): as the sequence (P10275 550-651, one chain of several) above

Q: With PSA enhancer ARE IV as the molecule, how does the K half [1] read?
A: < 14 nM

Q: For PSA enhancer ARE V, which K half [1] is on record?
A: < 14 nM

Q: And the K half [2]?
A: < 1400 nM

B1: PSA enhancer ARE VI (dsDNA)
DNA 1: GGATGCTGTGCACAC
DNA 2: GTGTGCACAGCATCC
Q: Does B1 bind [3]?
A: binds

B2: biotinylated ARE affinity oligonucleotide (dsDNA)
DNA 1: TTTCCTTGCAGTACAGCATGTTCTAGC
DNA 2: GCTAGAACATGCTGTACTGCAAGGAAA
Q: Does B2 bind [4]?
A: binds
